In US20200017552A1 one finds EC50 values for inhibition of viral replication in vitro data, which are given here for two molecules.

The target in experiment [1] is HA of Ft. Monmouth influenza virus (on virions) (influenza virus strain Ft. Monmouth). Kind of experiment: cell-based or functional assay.
The target is the same in experiment [2]. As to the kind of experiment: cell-based or functional assay. The source holds these as a separate data set.

Like-named read-outs stand apart in the source and are kept apart here.

B1: HB1.6928.2.3 (designed binder)
chain: CIEQSFTTLFACQTAAEIWRAFGYTVKIMVDNGNCRLHVC
modifications: not checked
Regarding B1, in experiment [1], the EC50 values for inhibition of viral replication in vitro worked out at 0.02 ng/mL.

B2: CS15990 A13_r31_TAWQT Thr-40-Thr (designed binder)
chain: TIEQSFTTLFAAQTAAEIWRAFGYTVKIMQDNGNWRLHVT
For B2, the EC50 values for inhibition of viral replication in vitro in experiment [2] amounted to 2 ng/mL.
